Source: the nanobody polyreactivity screen of Harvey et al. (2022)

Assay: yeast display, Sf9 membrane polyspecificity reagent, FACS + sequencing; frameworks hold sequencing errors
How it was run: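 Nanobodies came from a synthetic yeast display library in Saccharomyces cerevisiae BJ5465, induced with galactose for 36–48 hours and stained for 1 hour at 4 °C with 10% biotinylated, detergent-solubilized Sf9 membrane reagent. Cells were enriched on streptavidin microbeads and then FACS-sorted, with low and high (top ~1%) gates set on anti-HA fluorescence for expression and streptavidin fluorescence for reagent binding. Each polyreactivity label reflects the gate a clone came from. Genes were amplified by colony PCR, sequenced by MiSeq 2 × 250 and filtered by CDR length.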

| Sequence | polyreactivity (PSR sort gate) |
| --- | --- |
| QVQLVESGGGLVQAGGSLRLSCADSGSIFAYAMGCSRQAPRKESELVAGISSSGGRTYYADSVKGRFSISRDNAKNTVYLQMNSLKPEDTAVYYCAAKRWGLYKGYYWGQGTQVTVSS | high polyreactivity |
| QVQLVESGGGLVQAGGSLRLSCADSGSIFDFNTMGWYRQAPGKERELVAAISQRTGRTYYADSVKGRFTISRDNANNTVYLQMNSLKPEDTADYYCAVVWYDKGRQTRYNSWGQGTQVTVSS | high polyreactivity |
| QVQLVESGGGLVQAGGSLRLSCADSGSIFFFYAMGWYRQAPGKERELVAAISKSPSSTYYADSVKGRFTISRDNAKNTVYLQMNSLKPEDTAVYYCNTGYSGIQYYYWGQGAQVTVSS | low polyreactivity |
| QVQLVESGGGLVQAGGSLRLSCADSGSILIHYTMGWYRQEPGKERELVAAISSTGGSTYYADSVKGRFTISRDNAKNTVYLQMNSLKPEDTAVYYCATGPHQPPYSYLDYDYWGQGTQVTVSS | low polyreactivity |
| QVQLVESGGGLVQAGGSLRLSCADSGSISDYYAMGWYRQAPGKERELVAAISWDGGSTYYADSVKGRFTISRDNAKNTVYLQMNSLKPEDTAVYYCAAVAWEGSGSEMYSWGQGTQVTVSS | low polyreactivity |
| QVQLVESGGGLVQAGGSLRLSCADSGSTFRPYAMGWNRQAPGKERELVAAISSGDSTYYADSVKGRFTISRDNAKNTVYLQMNSLKPEDTAVYYCAKRKYWHRGGGYWGQGTQVTVSS | high polyreactivity |
| QVQLVESGGGLVQAGGSLRLSCADSGSTFWFYERGWYSQAPGKVRELVAVISNSGSTYYADSVKGLFTISRDNAKNTVYLQMNSLKPEDTAVYYCNKDGGGDSYWYDYWGQGTQVTVSS | low polyreactivity |
| QVQLVESGGGLVQAGGSLRLSCADSGSTFWLYAMGWYRQAPGKERELVASISSRGRSTYYADSVKGRFTISRDNAKNTVYLQMNSLKPEDTAVYYCAAKDIRYDDDYWGQGTQVTVSS | low polyreactivity |
| QVQLVESGGGLVQAGGSLRLSCADSGSTFYRYGMASSRHAPGKERELVAAISWRGGITYYADSVKGRFTISRENAMHTVYLQRNSLKPQDSAVYYCAADGPYTGDGALDYWGQGTQVTVSS | high polyreactivity |
| QVQLVESGGGLVQAGGSLRLSCADSGSTFYVYSMGWYRQAPGKERELVAAITGSTGSTYYADSVKGRFTISRDNAKNTVYLQMNSLKPVDTAVYYCAADFYGVPIIYDYWGQGTQVTLSS | low polyreactivity |
| QVQLVESGGGLVQAGGSLRLSCADSGSTIPKYAMGWSRQAPGKERELVAVITSGGSTYYADSVKGRFTISRDNAKNTVYLQMISLKPEDTAVYYCAARKYRRFDYWGQGTQVTVSS | high polyreactivity |
| QVQLVESGGGLVQAGGSLRLSCADSGTTFVKYAMGWYRQAPGKERELVAAISSRGGRTYYADSVKGRFTISRDNAKNTVYLQMNSLKPEDTEVYYCNKGTRLDGEYEYWGHGTQVTVSS | high polyreactivity |
| QVQLVESGGGLVQAGGSLRLSCADSGYIFDAYAMGWYRQAPGKERELVAAIDIGGSTYYADSVKGRFTISRDNAKNTVYLQMNSLKPEDTAVYYCAEWFYFDQWDYAREYWGQGTQVTVSS | low polyreactivity |
| QVQLVESGGGLVQAGGSLRLSCAGSGNIFSTYAMGWYRPAPGKVRELVASISENGGSTYYADSVKGRFTISRDNAKNTVYLQMNSLKPEDTAVYYCNADAYVYFDDGDYWGQGTQVTVSS | low polyreactivity |
| QVQLVESGGGLVQAGGSLRLSCAGSGRIFARNVMGWYGQAPGKVRELVAAISRSGGSTYYADSVKGRFTISRDNAKNTVYLQMNSLKPEDTAFYYCNAYYPIRSSPYGYYYWGQGTQVTVSS | high polyreactivity |
| QVQLVESGGGLVQAGGSLRLSCAGSGRIFYVYAMGWYRQAPGKERELVAAISRGGSTNYADSVKGRFTISRDNAKNTVYLQMNSLKPEDTAVYYCAASSLPHYSFRHSYLYEYWGQGTQVTVSS | low polyreactivity |
| QVQLVESGGGLVQAGGSLRLSCAGSGSTFDSYAMGWYRQAPGKERELVAAITRSDASTYYADSVKGRFTISRDNAKNTVYLQMNSLKPEDTAVYYCAADTSLVYYGGDWEYYYWGQGTQVTVSS | low polyreactivity |
| QVQLVESGGGLVQAGGSLRLSCAGSGSTFRSNAMGWYRQAPGKERELVAAISQRGGSTYYADSVKGRFTISRDNAKNTVYLQMNSLKPEDTAVYYCAAQYFRRSGYWGQGTQVTVSS | high polyreactivity |
| QVQLVESGGGLVQAGGSLRLSCAGSGSTFVVYSIGWYRQAPGKERELVAAITRGGGSTYYAYSVKGRFTISRDNAKNTVYLLMNSLKPEDTAVYYCAAYQLPGLRTSFEYWGQGTQVTVSS | low polyreactivity |
| QVQLVESGGGLVQAGGSLRLSCAGSGSTVSANALGSYRQAPGKDRELVAAISRRGGSTNYADSVKGRFTISRDNAKNTVYLQMNSLKPEDTAVYYCAGLYVPRSPFSYDYWGQGTQVTVSS | high polyreactivity |
| QVQLVESGGGLVQAGGSLRLSCAGSGYILFAYAMGWSRQAPGKERELVATITTSGGITYYADSVKGRFTISRDNAKNTVYLQMNSLKPEDTEVYYWAAAEGGGLVTYDYWGQGSQVTVSS | low polyreactivity |
| QVQLVESGGGLVQAGGSLRLSCAGYGRIFEDNSMVSYRQPPGKERELVAAISSGDSTKYADSVKGRFTISRDNAKTTVYLQIKSLKQEDTAVYYCAAERNHGLVGSESVGRNVYWGHGTQVTVSS | low polyreactivity |

| Sequence | polyreactivity (PSR sort gate) |
| --- | --- |
| QVQLVESGGGLVQAGGSLRLSCAHSGFTFTRNAMGWYRQSPGKETELVATISGSGGGTYYADSVKGRFTISRDNAKNTVYLQMNRLKPEDTAVYYCNARRLYSWQGTARYDFWGQGTQVTVSS | low polyreactivity |
| QVQLVESGGGLVQAGGSLRLSCAPSGATFRRNAMGWYRQAPGKERELVAAITWRGGSTSYADSVKGRFTISRDNAKNTVYLQMNSLKREDTAVYYCAAVKGHSQVLSYGYWGQGTQVTVSS | low polyreactivity |
| QVQLVESGGGLVQAGGSLRLSCAPSGFIFAKYTMGWSRHAPGKERELVAAISANGGNTYYADSVKGRFTITRDNAKNTVYLQMNSLNPEDTAVYYCAALYKYSSYFDYWGQGTLVTVSS | high polyreactivity |
| QVQLVESGGGLVQAGGSLRLSCAPSGFIFARNAMGWYRQAPGKERELVAVISTRGRTYYADSVKGRFTISRDNAKNTVYLQMKRLKPEDTAVYYCNADKVIGYDYWGQGTQVTVSS | high polyreactivity |
| QVQLVESGGGLVQAGGSLRLSCAPSGFIFSRYAMGWYRQAPGKERELVATITSSGGSTYYADSVKGRFTISRDNAKNTVYLQMNSLKPEDTAVYYCNAKISIRWHYGYYYWGQGTQVTVSS | high polyreactivity |
| QVQLVESGGGLVQAGGSLRLSCAPSGFTFGIYAMGWYRQAPGKERELLADINVSDGSTYYADSVKRRFTISRDNAKNTVYLQMNSLKPEDTAVYYSAAYVYDTIYTSYREYDYWGQGTQVTVST | low polyreactivity |
| QVQLVESGGGLVQAGGSLRLSCAPSGFTFRYNTMAWYRQAPGKERELVAAISSSGSSTYYADSVKGRFTISRDNAKNTVYLQMNSLKPVDTAVYYCNAVHRRTRYGYWGQGTQVTVSS | high polyreactivity |
| QVQLVESGGGLVQAGGSLRLSCAPSGGTFALYAMGWYRQAPGKERELVASISFNGGSTYYADSVKGRFTISRDNAKNTVYLQMNSLKPEDTAVYYCNTGYQWGVYESQTAVEDYWGQGTQVTVSS | low polyreactivity |
| QVQLVESGGGLVQAGGSLRLSCAPSGGTFIYYAMGWYRQAPGKERELVAAISSGGSTYYADSVKGRFTISRDNAKNTVYLQMNSLKPEDTAVYYCAKRRAVQIVDLEYWRQGTQVTVSS | low polyreactivity |
| QVQLVESGGGLVQAGGSLRLSCAPSGGTFVTYAMGWYIQAPGKERELVAAITTGGSTYYADSVKGRFTISRDNAKNTVYLQMNSLKPEDTAVYYCAAVYTGSGKRYYKGYYWGQGTQVTVSS | low polyreactivity |
| QVQLVESGGGLVQAGGSLRLSCAPSGIIAKHNAMGWYRQAPGKERELVAAITSGSITNYADSVKGRFTISRDNAKNTLYLQMNSLKPEDTAVYYCAKRVDAYGWWGRRSGVLSDYWGQGTQVTVSS | low polyreactivity |
| QVQLVESGGGLVQAGGSLRLSCAPSGIILGYYAMGWYRQAPGKERELVAAISSGGRTYYADSVKGRFTISRDNAKNTVYLQMNSLKPEDTAVYYCAADDTRGREEYDYWGQGTQVTVSS | high polyreactivity |
| QVQLVESGGGLVQAGGSLRLSCAPSGIISIFNVMGWYRQAPGKERELVASITGRGGSTFYADSVKGRFTISRDNAKNTVYLQMNSLKPEDTAVYYCATDTGYTYPVTGLYDYWGQGTQVTVSS | low polyreactivity |
| QVQLVESGGGLVQAGGSLRLSCAPSGITFRQFTMGWYRQAPGKERELVAAITSSGRTYYADSVKGRFTISLDNAKNTVYLQMNSLKPEDTAVYYCAAGVGGAAHPVSYFTYDYWGQGTQVTVSS | high polyreactivity |
| QVQLVESGGGLVQAGGSLRLSCAPSGITFSYSAMGWYRQAPGKERELVAAISGSGTSTYYADSVKGRFTISRDNAKNTVYVQMNSLKPEVTAVYYCAAKGRKSVYSRNSWGQGTQVTVSS | high polyreactivity |
| QVQLVESGGGLVQAGGSLRLSCAPSGITFYKYAMGWYRQAPGKERELVATISRRGGTTYYADSVKGRFTISRDNAKNTVYLQMNSLKPEDTAVYYCNADSRTYRYYWSYGYWGQGTQVTVSS | high polyreactivity |
| QVQLVESGGGLVQAGGSLRLSCAPSGLIFYGYAMGWYRQAPGKERELVAAISCSGGRTYYADSVKGRFTISRDNAKNTVYLQMNSLKPEDTAVYYCNVRNRYRPYLPFWPDDYWGQGTQVTVSS | high polyreactivity |
| QVQLVESGGGLVQAGGSLRLSCAPSGLIFYRYAMGWYRQAPGKERELVAAITRGGSTHYADSVKGRFTISRDNAKFTVYLQMNSLKPEDTAVYYCAATFKGRIYRYEYWGQGTQVTVSS | high polyreactivity |
| QVQLVESGGGLVQAGGSLRLSCAPSGLTFDVYAMGWYRQAPWKQRELVAAISSIGGSTYYADSVKGRFTISRDTAKNTVYVQMNSLKPEDTAVYYCAAAISLYSYDYWGQGTQVTVSS | low polyreactivity |
| QVQLVESGGGLVQAGGSLRLSCAPSGLTFKDYTMGWYRQAPGKERELVAAISKSGGRTYYADSVKGRFTISRDNAKNTVYLQMNSLKPEDTAVYYCNADSRTYRYYWSYGYWGQGTQVTVSS | high polyreactivity |
| QVQLVESGGGLVQAGGSLRLSCAPSGLTYRRYTMGWYRQAPGKEREFVAAISWGGDSTYYADSVKGRFTISRDNAKNTVYLQLTSLKPEDTAVYYCAADFLYIYNYWGQGTQVTVSS | high polyreactivity |
